This assay concerns the target T1, Wild-type human ABCG2 with an N-terminal GFP tag (human, UniProt Q9UNQ0).
T1 construct: ABCG2, human, wild type; also called GFP-ABCG2; WT; not shown: GFP, N-terminal, kept
Put plainly: flow cytometry on cells; 5D3 antibody shift assay: stable GFP-ABCG2 HEK293F cells, 1 ug/mL 5D3 in PBS with 0.5% BSA, 37 °C 45 min, with or without MXN, SN38, imatinib or Ko143; goat-anti-mouse IgG-PE; gated on high GFP. The following applies: one partner purified.

The values below come from publication PMC7210939, “ABCG2 transports anticancer drugs via a closed-to-open switch” (Nature Communications, 2020).

T1 sequence (Q9UNQ0 whole entry): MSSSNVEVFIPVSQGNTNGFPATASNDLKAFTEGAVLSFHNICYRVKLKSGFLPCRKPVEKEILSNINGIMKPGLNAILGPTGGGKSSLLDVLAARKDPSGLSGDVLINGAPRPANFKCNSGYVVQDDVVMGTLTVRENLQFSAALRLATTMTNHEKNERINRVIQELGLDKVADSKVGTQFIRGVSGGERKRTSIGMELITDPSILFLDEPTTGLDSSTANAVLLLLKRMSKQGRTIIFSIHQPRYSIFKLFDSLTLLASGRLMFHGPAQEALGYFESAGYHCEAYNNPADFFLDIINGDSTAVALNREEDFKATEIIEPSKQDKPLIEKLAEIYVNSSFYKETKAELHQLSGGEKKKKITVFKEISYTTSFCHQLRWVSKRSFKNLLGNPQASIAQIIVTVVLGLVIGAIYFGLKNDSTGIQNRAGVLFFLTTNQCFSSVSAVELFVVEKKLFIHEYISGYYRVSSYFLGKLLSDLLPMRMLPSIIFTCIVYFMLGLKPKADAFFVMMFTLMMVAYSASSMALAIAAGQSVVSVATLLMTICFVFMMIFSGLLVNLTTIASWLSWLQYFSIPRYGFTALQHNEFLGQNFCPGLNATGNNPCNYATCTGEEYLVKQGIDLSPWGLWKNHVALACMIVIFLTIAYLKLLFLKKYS

B1: 5D3 antibody (antibody, V domains shown)
VH: QVQLQESGPGLVKPSQSLSLTCTVTGFSITSDYAWNWIRQFPGKKLEWMGYINFDGGTTYNPSLRGRISITRDTSKNQFFLQLRSVTPEDTATYYCATFYGAKGTLDYWGQGTSVTVSS
VL: DIVLTQSPSSFSVSLGDRVTISCKASGYILNRLAWYQQKPGNAPRLLISGATSLETGFPSRFSGTGSGKDYTLSISSLQTEDVGTYYCQQYWSTPWTFGGGTKLEIR
notes: the PDB entry holds the Fab only; also called conformation specific 5D3 antibody
For B1, the binding result is given as “binds”.
